From patent publication US20230416362A1 (INDUSTRIAL TECHNOLOGY RESEARCH INSTITUTE, published 2023)
Residue numbers refer to the chain shown, from its start.

Key:
[1] = target: T1, human TIGIT expressed on cells (TIGIT/Jurkat cells; MJ[G11] cells; PBMC T cells) (human, UniProt Q495A1 22-244); experiment: flow cytometry on TIGIT/Jurkat cells
T1 construct: The cell line is named under assay; also called human TIGIT-expressing Jurkat cells
T1 sequence: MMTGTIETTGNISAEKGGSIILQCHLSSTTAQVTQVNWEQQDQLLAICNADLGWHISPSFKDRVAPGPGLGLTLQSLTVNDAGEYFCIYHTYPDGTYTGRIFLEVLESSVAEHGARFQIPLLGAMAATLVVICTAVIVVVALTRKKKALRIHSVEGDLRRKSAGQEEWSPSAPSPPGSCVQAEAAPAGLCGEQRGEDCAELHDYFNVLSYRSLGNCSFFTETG
Description: Sequential dilutions of Protein A column-purified 7D4, 2C9, and 3A9 antibodies were separately incubated with 5×10⁵ of human TIGIT-expressing Jurkat cells (TIGIT/Jurkat) in 50 μl of FACS buffer (0.2% BSA in Dulbecco's phosphate-buffered saline (DPBS) containing 0.09% sodium azide) on ice for 1 hour. After washing, the cells were stained with anti-mouse IgG conjugated with PE dyes and antibody binding strength was analyzed by flow cytometry.

[2] = target: T2, recombinant mouse TIGIT IgV domain (mouse, UniProt P86176 29-145); experiment: ELISA on coated recombinant TIGIT IgV domain
T2 construct: Made in NS0 cells, purified on Strep-Tactin XT; Biotinylated for phage panning; also called biotinylated mouse TIGIT IgV domain
T2 sequence: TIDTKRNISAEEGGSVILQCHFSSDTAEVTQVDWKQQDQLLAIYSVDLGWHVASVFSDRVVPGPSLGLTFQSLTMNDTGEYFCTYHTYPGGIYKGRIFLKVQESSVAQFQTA
Description: To assess species cross-reactivity of anti-TIGIT antibodies 7D4, 2C9, and 3A9, ELISA binding assays to human, cynomolgus monkey, and mouse TIGIT were performed. 1 μg/ml each of human, cyno (R&D Systems, Inc., #9380-TG), and mouse TIGIT in 50 μl of DPBS were coated on 96-well plates at 4° C. for overnight. After washing the plates with phosphate-buffered saline containing 0.05% of Tween 20 (PBST), a sequential dilution of 7D4, 2C9, and 3A9 antibodies was added separately and the plates were incubated at 37° C. for 1 hour. After washing the plates three times with PBST, the plates were incubated with an anti-mouse Fey polyclonal antibody conjugated with horseradish peroxidase (HRP) at 37° C. for 1 hour. After washing the plates three times with PBST, 100 μl of 3,3′,5,5′-tetra-methylbenzidine (TMB) substrate (Thermo Fisher Scientific, #34018) were added into each well. After 5 to 10 min of color development, 50 μl of stop solution (2 N of HCl) were added into each well and plates were read by spectrophotometer at a wavelength of 450 nm.

[3] = target: T3, TIGIT-biotin (TIGIT:CD155 Homogeneous Assay Kit, #72029) (human, UniProt Q495A1 22-141, limits assumed, biotin (site not stated)); experiment: AlphaLISA competition: TIGIT-biotin with antibody, then histidine-tagged CD155 as competitor
T3 construct: Kit reagent; also called human TIGIT
T3 chain: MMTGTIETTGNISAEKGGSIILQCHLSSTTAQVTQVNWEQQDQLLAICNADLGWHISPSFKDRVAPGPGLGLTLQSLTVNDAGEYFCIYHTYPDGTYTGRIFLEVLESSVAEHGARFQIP
Description: To evaluate inhibition of binding of TIGIT to CD155 by anti-TIGIT antibodies, AlphaLISA assays were performed using a TIGIT:CD155 Homogeneous Assay Kit (PBS Biosciences, #72029). Aliquots (6 μl) of solution containing TIGIT-biotin (final concentration 0.2 ng/μl) and 4-fold serial dilution of the test antibodies (final volume 2 μl) were added into a 384-well plate. The plates were covered with a lid and incubated at room temperature for 30 min. Then, 2 μl of histidine-tagged CD155 were added (final concentration 0.05 ng/μl) into each well and incubated at room temperature for 60 min. Finally, aliquots (5 μl) of streptavidin-conjugated donor beads (final concentration 10 μg/ml) and 5 μl of anti-His tag acceptor beads (final concentration 20 μg/ml) were added and the plate was incubated at room temperature for 30 min in the dark. AlphaLISA signals were measured on an EnSpire Alpha 2390 (Perkin-Elmer Life Sciences). 15A6 (U.S. Pat. No. 10,189,902) and MBSA43 (Thermo Fisher Scientific, #16-9500-82) were used as reference antibodies.
These antibodies were selected for further functional studies.

[4] = target: T1, human TIGIT expressed on cells …; experiment: flow cytometry competition on MJ[G11] cells; competitor DyLight 650-CD155-human Fc at 1.5 µg/ml
From the text: (§1) Anti-TIGIT antibodies, including hz7D4, and reference antibodies (15A6 and 1D3) were used to compete with CD155 for binding to cells expressing human TIGIT. MJ[G11] (American Type Culture Collection (ATCC), CRL-8294) is a CD3+CD4+T lymphoma cell line carrying human T cell leukemia virus (HTLV-I). MJ[G11] cells were characterized by immunostaining with regulatory T cell phenotypic antibody markers, including CD4, CD25, CD127, and FoxP3, and found to be a regulatory T cell-like cell line (FIG. 9A). Moreover, MJ[G11] cells express human TIGIT constitutively, as shown by immunostaining with PE-conjugated anti-human TIGIT, MBSA43 antibody (FIG. 9B). A sequential 3-fold dilution of anti-TIGIT antibodies was added to 5×10⁵ of human TIGIT-expressing Jurkat cells or 3×10⁵ of MJ[G11] cells in 50 μl FACS buffer (0.2% BSA in DPBS containing 0.09% sodium azide) and incubated on ice for 30 min. Then, 10 μl of DyLight 650-conjugated CD155-human Fc fusion protein were added to the cells, to reach a final concentration of 1 μg/ml for human TIGIT-Jurkat cells and 1.5 μg/ml for MJ[G11] cells, and incubated for 30 min at 4° C. Cells were washed and analyzed by a FACSCalibur cytometer (Becton Dickinson). IC₅₀ values were calculated based on normalized median fluorescence intensity (MFI) values. […]

[5] = target: T1, human TIGIT expressed on cells …; experiment: flow cytometry competition on TIGIT/Jurkat cells; competitor DyLight 650-CD155-human Fc at 1 µg/ml
From the text: as §1

[6] = target: T4, cyno TIGIT IgV domain (cynomolgus monkey); experiment: phage display panning on biotinylated cyno TIGIT IgV domain
T4 construct: Biotinylated for phage panning; also called biotinylated cyno TIGIT IgV domain; cynomolgus monkey TIGIT
T4 sequence (chain, as listed by the source limits assumed): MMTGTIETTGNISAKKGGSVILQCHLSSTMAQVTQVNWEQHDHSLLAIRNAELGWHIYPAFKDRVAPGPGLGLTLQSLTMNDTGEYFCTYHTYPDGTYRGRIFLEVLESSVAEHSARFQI
Description: (§2) The phages were captured by incubation with 50 μl of M280 streptavidin magnetic beads (Thermo Fisher Scientific) for 15 min. Non-specific phages were eliminated by ten washes with PBS/0.1% Tween-20, followed by 10 washes with PBS for 5 min each. Bound phages were eluted with 0.1 M glycine (pH 2.0), neutralized with 1 M Tris-HCl (pH 8.0) and re-infected into log-phase TG1 cells. In the second panning round, phages (10⁹ cfu) were used against 0.1 nM of the biotinylated cyno TIGIT IgV domain.
(§3) The nucleotide sequences of the phage clones that bind to both human and cyno TIGIT IgV domains were determined. All heavy chain CDR3 (HCDR3) clones contain the wild type HCDR3 amino acid sequence of […] (SEQ ID NO: 3). Two light chain CDR3 (LCDR3) clones screened by the light chain library, designated 1A11 and 1E3, contain LCDR3 amino acid sequences of […] (SEQ ID NO: 23) and […] (SEQ ID NO: 24), respectively.

[7] = target: T5, recombinant human TIGIT IgV domain (human, UniProt Q495A1 22-141, limits assumed); experiment: phage display panning on biotinylated human TIGIT IgV domain
T5 construct: Made in NS0 or Expi293F cells, purified on Strep-Tactin XT; Biotinylated for phage panning; also called human TIGIT IgV protein; native (Nat) form human TIGIT protein
T5 chain: T3 chain
Description: as §2, §3

B1: 7D4 (antibody, V domains shown)
VH: QVQLKHSGAELVRPGTSVKMSCKASGYTFTNYWIGWAKQRPGHGLEWIGDIYPGSSFTNSNEKFKGKATLTADKSSSTAYMQFSSLTSEDSAIYYCAKLGRGYWYFDVWGTGTSVTVSA
VL: DIVLTQSPAIMSASLGEEITLTCSASSSVSYIHWYQQKSGTSPKLLIYTTSNLASGVPSRFSGSGSGTFYSLTISSVEAEDAADYYCHQWSRYPTFGGGTKLEIK
notes: Mouse monoclonal antibody from hybridoma clone 7D4, Protein A purified; also called anti-TIGIT monoclonal antibody 7D4; parental mouse 7D4 antibody
In the case of B1, the Kd [1] is reported as 0.27 nM, the EC50 [2] is reported as 10.5 nM and the IC50 [3] is reported as 0.32 nM.

B2: hz7D4 hIgG1 (antibody, V domains shown)
VH: EVQLVQSGGGLVKPGGSLRLSCAASGYTFTNYWIGWVRQTPGKGLEWVGDIYPGSSFTNSNEKFKGRFTISADKSKNTAYLQMNSLRAEDTAVYYCARLGRGYWYFDVWGQGTLVTVSS
VL: DIVLTQSPATLSASLGERATLSCSASSSVSYIHWYQQKPGQAPKLLIYTTSNLASGVPSRFSGSGSGTDFTLTISSLEAEDFATYYCHQWSRYPTFGGGTKLEIK
notes: Human IgG1 (vector pFUSE-CHIg-hIG1) with human kappa constant region, made in CHO-S cells; also called humanized 7D4; hz7D4 human IgG1
Binder B2 has an IC50 [4] of 0.3 nM and an IC50 [5] of 0.2 nM.

B3: 1A11 scFv phage clone (scFv, V domains shown)
VH: B2 VH
VL: B2 VL with H88Q, Q89L, W90F, S91R, R92S, Y93G, P94S, T95A
B3: binds [6]; binds [7].
